Common to all, as to conditions: both partners purified
Test [1] deals with T1, FACT complex (SPT16/SSRP1), full length, untreated (human, UniProt Q9Y5B9 1-1047; Q08945 1-709, phosphorylated as purified from insect cells; residues not printed | phosphorylated as purified from insect cells; residues not given).
T1 construct: SPT16, FACT subunit; SSRP1, FACT subunit; His tags are followed by a TEV site; cleavage is not described; also called FAcilitates Chromatin Transcription complex; full-length FACT; source: Tnao38 insect cells (baculovirus), purified (HisTrap, HiTrap Q, SEC)
T1 sequence (Q9Y5B9 whole entry, one chain of several): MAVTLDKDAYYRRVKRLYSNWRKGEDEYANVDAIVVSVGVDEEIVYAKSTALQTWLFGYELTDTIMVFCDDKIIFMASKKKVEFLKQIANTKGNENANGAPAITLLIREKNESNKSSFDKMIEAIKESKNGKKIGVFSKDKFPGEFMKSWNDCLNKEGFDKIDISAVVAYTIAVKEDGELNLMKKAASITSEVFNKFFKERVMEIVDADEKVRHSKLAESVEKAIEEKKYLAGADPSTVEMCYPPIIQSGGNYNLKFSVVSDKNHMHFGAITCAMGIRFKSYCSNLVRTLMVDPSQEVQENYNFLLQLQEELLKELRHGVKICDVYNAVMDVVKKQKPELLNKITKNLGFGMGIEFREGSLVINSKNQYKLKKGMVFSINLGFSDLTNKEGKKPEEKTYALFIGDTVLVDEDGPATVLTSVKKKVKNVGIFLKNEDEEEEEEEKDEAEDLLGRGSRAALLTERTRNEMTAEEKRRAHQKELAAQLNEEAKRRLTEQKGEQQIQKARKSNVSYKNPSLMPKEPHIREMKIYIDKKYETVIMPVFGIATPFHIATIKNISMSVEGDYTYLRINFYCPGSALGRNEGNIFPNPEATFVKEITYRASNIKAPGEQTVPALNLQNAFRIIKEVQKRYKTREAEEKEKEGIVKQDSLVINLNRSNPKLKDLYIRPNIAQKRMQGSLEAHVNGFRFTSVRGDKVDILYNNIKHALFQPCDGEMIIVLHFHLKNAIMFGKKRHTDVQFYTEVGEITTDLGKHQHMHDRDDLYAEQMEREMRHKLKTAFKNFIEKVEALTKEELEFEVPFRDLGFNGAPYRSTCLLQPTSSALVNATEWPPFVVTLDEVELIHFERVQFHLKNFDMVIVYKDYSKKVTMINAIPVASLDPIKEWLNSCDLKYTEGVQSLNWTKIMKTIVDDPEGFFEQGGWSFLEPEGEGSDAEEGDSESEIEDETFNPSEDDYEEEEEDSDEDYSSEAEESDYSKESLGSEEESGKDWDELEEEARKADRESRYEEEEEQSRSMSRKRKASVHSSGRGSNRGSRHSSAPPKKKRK
The test is described as follows: pull-down; amylose resin, MBP-CENP-C fusion proteins (fragments or full-length ^MBPCENP-C^EGFP) as baits, FACT or FACT constructs as preys; 3 µM each; 20 mM Hepes pH 6.8, 300 mM NaCl, 2.5% glycerol, 1 mM TCEP, 0.01% Tween; 4°C.

Test [2] addresses T2, ^GSTCENP-OPQUR (CENP-OPQUR with CENP-U fused to an N-terminal GST) (human, UniProt Q9BU64 1-300; Q6IPU0 1-288; Q7L2Z9 1-268; Q71F23 1-418; Q13352 1-177).
T2 construct: CENP-O; CENP-P; CENP-Q; CENP-U; CENP-R; also called GST-tagged CENP-OPQUR; not shown: GST, N-terminal, kept; copies: + + + +
The test is described as follows: pull-down; glutathione-agarose, CENP-OPQUR with GST on CENP-U as bait, FACT constructs as preys; 3 µM each; 20 mM Hepes pH 6.8, 300 mM NaCl, 2.5% glycerol, 1 mM TCEP, 0.01% Tween; 4°C.

The target in test [3] is T3, CCAN, 16-subunit constitutive centromere-associated network reconstituted with CENP-C^2–545 (human, UniProt Q03188 2-545; Q9H3R5 1-247; Q92674 1-756; Q9BS16 1-269; Q9NSP4 1-180; Q8N0S6 …).
T3 construct: CENP-H; CENP-I; CENP-K; CENP-M; CENP-L; CENP-N; CENP-O; CENP-P; CENP-Q; CENP-U; CENP-R; CENP-T; CENP-W; CENP-S; CENP-X; source: recombinant subcomplexes expressed and purified as previously reported, mixed to reconstitute CCAN; copies: + + + + + + + + + + + + + + +
In words: pull-down; amylose resin, MBP-tagged FACT (untreated, dephosphorylated, kinase-treated or truncated) as bait, CCAN or CCAN subcomplexes as preys; 3 µM each; 20 mM Hepes pH 6.8, 300 mM NaCl, 2.5% glycerol, 1 mM TCEP, 0.01% Tween; 4°C; SDS-PAGE, Coomassie.

In test [4] the target is T4, ^MBPCENP-C^EGFP (a full-length CENP-C construct) (human, UniProt Q03188 1-943).
T4 construct: CENP-C; also called ^His-MBPCENP-C^EGFP; source: Tnao38 insect cells (baculovirus), purified (TALON, heparin, SEC); not shown: MBP, N-terminal, kept; EGFP, C-terminal, kept
T4 sequence (Q03188 whole entry): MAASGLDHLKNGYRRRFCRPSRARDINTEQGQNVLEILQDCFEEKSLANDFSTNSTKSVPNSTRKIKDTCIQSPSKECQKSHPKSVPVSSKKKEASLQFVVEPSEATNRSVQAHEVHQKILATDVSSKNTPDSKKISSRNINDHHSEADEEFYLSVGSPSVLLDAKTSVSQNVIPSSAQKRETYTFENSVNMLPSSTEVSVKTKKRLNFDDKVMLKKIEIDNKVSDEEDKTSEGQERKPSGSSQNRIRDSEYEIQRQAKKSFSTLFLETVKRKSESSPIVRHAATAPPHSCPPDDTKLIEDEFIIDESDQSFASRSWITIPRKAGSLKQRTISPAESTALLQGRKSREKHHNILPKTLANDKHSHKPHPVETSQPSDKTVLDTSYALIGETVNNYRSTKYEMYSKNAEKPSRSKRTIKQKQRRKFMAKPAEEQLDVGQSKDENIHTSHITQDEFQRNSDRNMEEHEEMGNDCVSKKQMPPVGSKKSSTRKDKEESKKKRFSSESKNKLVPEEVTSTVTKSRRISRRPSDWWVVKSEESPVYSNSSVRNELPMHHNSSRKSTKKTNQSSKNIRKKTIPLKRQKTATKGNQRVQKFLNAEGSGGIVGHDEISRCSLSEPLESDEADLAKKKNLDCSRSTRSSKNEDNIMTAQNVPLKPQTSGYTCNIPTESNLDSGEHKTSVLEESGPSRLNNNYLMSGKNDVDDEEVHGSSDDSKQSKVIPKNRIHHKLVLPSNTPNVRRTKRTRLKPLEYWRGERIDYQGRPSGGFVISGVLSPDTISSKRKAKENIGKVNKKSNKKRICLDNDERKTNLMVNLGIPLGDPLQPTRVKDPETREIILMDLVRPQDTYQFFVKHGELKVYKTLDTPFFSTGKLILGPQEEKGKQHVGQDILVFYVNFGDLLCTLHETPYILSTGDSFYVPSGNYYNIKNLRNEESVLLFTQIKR
The test is described as follows: pull-down; amylose resin, MBP-CENP-C fusion proteins (fragments or full-length ^MBPCENP-C^EGFP) as baits, FACT or FACT constructs as preys; 3 µM each; 20 mM Hepes pH 6.8, 300 mM NaCl, 2.5% glycerol, 1 mM TCEP, 0.01% Tween; 4°C.

B1: ^MBPCENP-C^721–759-His (domain or fragment, human, UniProt Q03188 721-759, looked up)
chain: KNRIHHKLVLPSNTPNVRRTKRTRLKPLEYWRGERIDYQ
notes: CENP-C, residues 721-759; not shown: MBP, N-terminal, kept
Turning to B1, in test [1], the binding result was “binds”.

B2: FACT^trunc (SPT16^508–988/SSRP1^1–514) (complex, human)
chain 1: SNVSYKNPSLMPKEPHIREMKIYIDKKYETVIMPVFGIATPFHIATIKNISMSVEGDYTYLRINFYCPGSALGRNEGNIFPNPEATFVKEITYRASNIKAPGEQTVPALNLQNAFRIIKEVQKRYKTREAEEKEKEGIVKQDSLVINLNRSNPKLKDLYIRPNIAQKRMQGSLEAHVNGFRFTSVRGDKVDILYNNIKHALFQPCDGEMIIVLHFHLKNAIMFGKKRHTDVQFYTEVGEITTDLGKHQHMHDRDDLYAEQMEREMRHKLKTAFKNFIEKVEALTKEELEFEVPFRDLGFNGAPYRSTCLLQPTSSALVNATEWPPFVVTLDEVELIHFERVQFHLKNFDMVIVYKDYSKKVTMINAIPVASLDPIKEWLNSCDLKYTEGVQSLNWTKIMKTIVDDPEGFFEQGGWSFLEPEGEGSDAEEGDSESEIEDETFNPSEDDYEEEEEDSDEDYSSEAEESDYSKESLGSEEESGK
chain 2: MAETLEFNDVYQEVKGSMNDGRLRLSRQGIIFKNSKTGKVDNIQAGELTEGIWRRVALGHGLKLLTKNGHVYKYDGFRESEFEKLSDFFKTHYRLELMEKDLCVKGWNWGTVKFGGQLLSFDIGDQPVFEIPLSNVSQCTTGKNEVTLEFHQNDDAEVSLMEVRFYVPPTQEDGVDPVEAFAQNVLSKADVIQATGDAICIFRELQCLTPRGRYDIRIYPTFLHLHGKTFDYKIPYTTVLRLFLLPHKDQRQMFFVISLDPPIKQGQTRYHFLILLFSKDEDISLTLNMNEEEVEKRFEGRLTKNMSGSLYEMVSRVMKALVNRKITVPGNFQGHSGAQCITCSYKASSGLLYPLERGFIYVHKPPVHIRFDEISFVNFARGTTTTRSFDFEIETKQGTQYTFSSIEREEYGKLFDFVNAKKLNIKNRGLKEGMNPSYDEYADSDEDQHDAYLERMKEEGKIREENANDSSDDSGEETDESFNPGEEEEDVAEEFDSNASASSSSNEGDSDRDE
notes: SPT16, residues 508-988; SSRP1, residues 1-514; also called construct 2; source: Tnao38 insect cells (baculovirus), purified (HisTrap, HiTrap Q, SEC)
Consider B2, for which, in test [2], the binding result is “binds”.

B3: ^MBPFACT^trunc (MBP-TEV-SPT16^508–988 + His-TEV-SSRP1^1–514) (complex, human)
chain 1: SNVSYKNPSLMPKEPHIREMKIYIDKKYETVIMPVFGIATPFHIATIKNISMSVEGDYTYLRINFYCPGSALGRNEGNIFPNPEATFVKEITYRASNIKAPGEQTVPALNLQNAFRIIKEVQKRYKTREAEEKEKEGIVKQDSLVINLNRSNPKLKDLYIRPNIAQKRMQGSLEAHVNGFRFTSVRGDKVDILYNNIKHALFQPCDGEMIIVLHFHLKNAIMFGKKRHTDVQFYTEVGEITTDLGKHQHMHDRDDLYAEQMEREMRHKLKTAFKNFIEKVEALTKEELEFEVPFRDLGFNGAPYRSTCLLQPTSSALVNATEWPPFVVTLDEVELIHFERVQFHLKNFDMVIVYKDYSKKVTMINAIPVASLDPIKEWLNSCDLKYTEGVQSLNWTKIMKTIVDDPEGFFEQGGWSFLEPEGEGSDAEEGDSESEIEDETFNPSEDDYEEEEEDSDEDYSSEAEESDYSKESLGSEEESGK
chain 2: MAETLEFNDVYQEVKGSMNDGRLRLSRQGIIFKNSKTGKVDNIQAGELTEGIWRRVALGHGLKLLTKNGHVYKYDGFRESEFEKLSDFFKTHYRLELMEKDLCVKGWNWGTVKFGGQLLSFDIGDQPVFEIPLSNVSQCTTGKNEVTLEFHQNDDAEVSLMEVRFYVPPTQEDGVDPVEAFAQNVLSKADVIQATGDAICIFRELQCLTPRGRYDIRIYPTFLHLHGKTFDYKIPYTTVLRLFLLPHKDQRQMFFVISLDPPIKQGQTRYHFLILLFSKDEDISLTLNMNEEEVEKRFEGRLTKNMSGSLYEMVSRVMKALVNRKITVPGNFQGHSGAQCITCSYKASSGLLYPLERGFIYVHKPPVHIRFDEISFVNFARGTTTTRSFDFEIETKQGTQYTFSSIEREEYGKLFDFVNAKKLNIKNRGLKEGMNPSYDEYADSDEDQHDAYLERMKEEGKIREENANDSSDDSGEETDESFNPGEEEEDVAEEFDSNASASSSSNEGDSDRDE
notes: SPT16, residues 508-988; SSRP1, residues 1-514; also called construct 2 with an N-terminal MBP fusion on SPT16; source: Tnao38 insect cells (baculovirus), purified (HisTrap, HiTrap Q, SEC); not shown: MBP, N-terminal, kept
Turning to B3, in test [3], the binding result is “binds”.

B4: ^MBPCENP-C^546–600-His (domain or fragment, human, UniProt Q03188 546-600, looked up)
chain: VRNELPMHHNSSRKSTKKTNQSSKNIRKKTIPLKRQKTATKGNQRVQKFLNAEGS
notes: CENP-C, residues 546-600; not shown: MBP, N-terminal, kept
Regarding B4, the binding result in test [1] was “binds”.

B5: SPT16^Mid-AID (SPT16^644–988) (domain or fragment, human, UniProt Q9Y5B9 644-988, looked up)
chain: GIVKQDSLVINLNRSNPKLKDLYIRPNIAQKRMQGSLEAHVNGFRFTSVRGDKVDILYNNIKHALFQPCDGEMIIVLHFHLKNAIMFGKKRHTDVQFYTEVGEITTDLGKHQHMHDRDDLYAEQMEREMRHKLKTAFKNFIEKVEALTKEELEFEVPFRDLGFNGAPYRSTCLLQPTSSALVNATEWPPFVVTLDEVELIHFERVQFHLKNFDMVIVYKDYSKKVTMINAIPVASLDPIKEWLNSCDLKYTEGVQSLNWTKIMKTIVDDPEGFFEQGGWSFLEPEGEGSDAEEGDSESEIEDETFNPSEDDYEEEEEDSDEDYSSEAEESDYSKESLGSEEESGK
notes: SPT16, Mid domain and AID segment, residues 644-988; also called construct 3; source: Tnao38 insect cells (baculovirus), purified (HisTrap, HiTrap Q, SEC)
B5: the binding result in test [4] was “binds”.

The record behind these values is PMC11912937 (The Journal of Cell Biology, 2025).
